{"source": "the nanobody polyreactivity screen of Harvey et al. (2022)", "data": [{"assay": "yeast display, Sf9 membrane polyspecificity reagent, FACS + sequencing; frameworks hold sequencing errors", "how_it_was_run": "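Using colony PCR, genes from sorted yeast display clones were amplified, then sequenced on MiSeq at 2 × 250 and filtered by CDR length. The clones had been stained with 10% biotinylated, detergent-solubilized Sf9 membrane reagent for 1 hour at 4 °C and sorted by FACS into low and high (top ~1%) gates on anti-HA and streptavidin fluorescence. Polyreactivity labels come from the gate of origin.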", "values": [{"sequence": "QVQLVESGGGLVQAGGSLRLSCAGSGFIITQYPMGWYRQAPGKERELVAAISGNGGRTYYADSVKGRFTISRDNAKNTDYLQMNSLKPEDTAVYYCAVTRPGRRYPFGYDYWGQGTQVTVSS", "polyreactivity (PSR sort gate)": "low polyreactivity"}, {"sequence": "QVQLVESGGGLVQAGGSLRLSCAGSGFTFGIYAMGSDRQAPGKERELVAAISSSGGSTYYADSVKGRFTISRDNAKNTVYLQMNSLKPEDTAVYYCAAVNSRRRYWYDYWGQGTQVTVSS", "polyreactivity (PSR sort gate)": "high polyreactivity"}, {"sequence": "QVQLVESGGGLVQAGGSLRLSCAGSGIILYWNTMGWYRHAPGKERELVAAITWSVGRTYYADSVKGRFTISRDNAKNTVYLQMNSLKPEDTAVYYCATTFQYYWFSLYDYWGQGTQVTVSS", "polyreactivity (PSR sort gate)": "low polyreactivity"}, {"sequence": "QVQLVESGGGLVQAGGSLRLSCAGSGRIFTQYAMGWYGQAPGKERELVAAINASDGSTYADSVKGRFTISRDNAKNTVYLQMNSLKPEDTAVYYCNVTGGPYDFTRWSEFDHWGQGTQVTVSS", "polyreactivity (PSR sort gate)": "low polyreactivity"}, {"sequence": "QVQLVESGGGLVQAGGSLRLSCAGSGRIFVSYAMGWYRQAPGKERELVAAITRSGGSTYYADSVKGRFTISRDNAKNTVYLQMNSLKPEDTAVYYCNAYIPRTRYRSGYWGQGTQVTVSS", "polyreactivity (PSR sort gate)": "high polyreactivity"}, {"sequence": "QVQLVESGGGLVQAGGSLRLSCAGSGRTFGRYAMGGYRQAPGKERELVAAIRSGGSTYYADSVKGRFTISRDNAKNTVYFQMNSLKPEDTAVYYCAADSTSLYNYWGQGTQVTVLS", "polyreactivity (PSR sort gate)": "low polyreactivity"}, {"sequence": "QVQLVESGGGLVQAGGSLRLSCAGSGSIFKRYAMGWYRQAPGKERELVAAITSRGGSTYYADSVKGRFTISRDTAKNTVYLQLNSLKPEDTAVYYCAATRSSTNGYDYWGQGTQVTVSS", "polyreactivity (PSR sort gate)": "high polyreactivity"}, {"sequence": "QVQLVESGGGLVQAGGSLRLSCAGSGSTFGGYAMGWYRQAPGKEWELVAAINSGGSTYYADSVKGRFTISRDNAKNTVYLQMNSLKPEDTAVYYCNADSQVIRDYIFDYWGQGTQVTVSS", "polyreactivity (PSR sort gate)": "low polyreactivity"}, {"sequence": "QVQLVESGGGLVQAGGSLRLSCAGSGSTFQRYGMGWYRQAPGKEREFVAAISTSGGITYYADSVKGRFTISRDNAKNTVYLQMNSLKPEDTAVYYCAARTARHVRYWAGWRDYWGQGTQVTVSS", "polyreactivity (PSR sort gate)": "high polyreactivity"}, {"sequence": "QVQLVESGGGLVQAGGSLRLSCAGSGSTLAIYAMGWYRHAPGKERELVAAISGGGSTYADSVKGRFTISRDNAKNTVYLQMISLKPEDTAVYYCNADGWGDRFWSNFRFDYWGQGTQVTVSS", "polyreactivity (PSR sort gate)": "low polyreactivity"}, {"sequence": "QVQLVESGGGLVQAGGSLRLSCAHSASTLQIYAMGWDRQAPGKESELVASISSTTSTNYADSVMGRFTISRDNAKNTVYLQMNSMKPEDTAVYYCARERFGGTDSQVVPWFRFDYDYWGQRTQVTVSS", "polyreactivity (PSR sort gate)": "low polyreactivity"}, {"sequence": "QVQLVESGGGLVQAGGSLRLSCAPCGFTFRRNAMGWYRQAPGKERELVAAINWSGGSTYYADSVKGRFTLSRDNAKNNVYLQMNSLKPEDTAVYYCNRRGQYTFWPIHEYWGQGTQVTVSS", "polyreactivity (PSR sort gate)": "high polyreactivity"}, {"sequence": "QVQLVESGGGLVQAGGSLRLSCAPSAFTFKYYSMGWYRHTPGKESELVAVISWSGGSTYYADSVKGRFTISRDYAKNTVYLHMNSQKPEDTAVYYCAAYERKFYTVSRWYKLDYWGQGTQVTVSS", "polyreactivity (PSR sort gate)": "high polyreactivity"}, {"sequence": "QVQLVESGGGLVQAGGSLRLSCAPSGCTLGAYAMGWYRQAPGKVRELVADISSRGASTYYEDSVKGRFTISRDHAKNTVYIQMNSLKPEDTAVYDCARAVYIWYGYGYFPEYEYWGQGTQVTVSS", "polyreactivity (PSR sort gate)": "low polyreactivity"}, {"sequence": "QVQLVESGGGLVQAGGSLRLSCAPSGFIFIRYAMGWYRQAPGKERELVASISWRGESTYYADSVKWRFTISRDNAKNTVYLQRNILKPEDTAVYYCAATGINSGPGRMDYWGQGTQVTVSS", "polyreactivity (PSR sort gate)": "high polyreactivity"}, {"sequence": "QVQLVESGGGLVQAGGSLRLSCAPSGFIFYTNAMGWYRQAPGKDRELVAAITCIGVSTYYADSVKGRFTISRDYAKNTVYLKMNSLKPEDTEVYYCAADRNFLIFTPDNLTMDYWGQGTQVTVSS", "polyreactivity (PSR sort gate)": "low polyreactivity"}, {"sequence": "QVQLVESGGGLVQAGGSLRLSCAPSGFSFRQYAMGWYRQAPGKERELVAAISSSGGRTYYADSVKGRCTISRDNAKNTVYLQMNSLKPEDSAVYYCNARAWLRGEYGEGYWGQGTQVTVSS", "polyreactivity (PSR sort gate)": "high polyreactivity"}, {"sequence": "QVQLVESGGGLVQAGGSLRLSCAPSGFTFDPYAMGWYRQAPGKERELVAAIDYSGGTTYYADSVKGRFTISRDNAKNTVYLQMNSLKPEDTAVYYCAAEYTYYHWWGYDYWGQGTQVTVSS", "polyreactivity (PSR sort gate)": "high polyreactivity"}, {"sequence": "QVQLVESGGGLVQAGGSLRLSCAPSGFTFLGYDMGWYRQAPGKERELVAAIDYSGGSTYYADSVKGRFTISRDNAKNTVFLQMNSLKPEDTAVYDCAAEYQSGPYTWYEYWGQGTQVTVSS", "polyreactivity (PSR sort gate)": "high polyreactivity"}, {"sequence": "QVQLVESGGGLVQAGGSLRLSCAPSGFTFLYYVMGWYRQAPGKERELVAAINAGGGSTYYAESVKGRFTLSRDNAKNSVYLQMKSLKPADTAVYYCNARVRVRLGRNWSSYYDWGQGTQVTVSS", "polyreactivity (PSR sort gate)": "high polyreactivity"}, {"sequence": "QVQLVESGGGLVQAGGSLRLSCAPSGFTFRIYAMGWYRQAPGKERELVAAISWAGGSTFYADSVKGRFTISRDNAKNTVYLQLNSLKPEDTAVYYCAADTAFNYDYWGQGTQVTVSS", "polyreactivity (PSR sort gate)": "low polyreactivity"}, {"sequence": "QVQLVESGGGLVQAGGSLRLSCAPSGGTFPVYAMGWYRQAPGKERELVAAISYSGVTTYNADSVKGRFTISRDNAKNTVYLQMNSLKPEVTAVYYCNADWRPWYMFSYDYWGQGTQVTVSS", "polyreactivity (PSR sort gate)": "low polyreactivity"}, {"sequence": "QVQLVESGGGLVQAGGSLRLSCAPSGIFYKYAMGWYRQAPGKERELVAAISISGTSTYYADSVKGRFTISRDNAKNTVYLQMNSLKPEDTAVYYCAADEFYFAPPVAGENYWGQGTQVTVSS", "polyreactivity (PSR sort gate)": "low polyreactivity"}, {"sequence": "QVQLVESGGGLVQAGGSLRLSCAPSGIIFQFYAMGWYRQAPGKERELVAAISRSGGITHYADSVKGRFTISRDNAKNTVYLQMNSLKPEDTAVYYCAAVRQAYPRLDYWGQGTQVTVSS", "polyreactivity (PSR sort gate)": "high polyreactivity"}, {"sequence": "QVQLVESGGGLVQAGGSLRLSCAPSGITFRPNAMGWYRQARGKERELVAAISSGDGTYADSVKGRFTISRDNAKNTVYLQMNSLKPEDSAVYYCNATGQSYVTSEYDYWGQGTQVTVSS", "polyreactivity (PSR sort gate)": "low polyreactivity"}, {"sequence": "QVQLVESGGGLVQAGGSLRLSCAPSGITFRVNAMGWYRQAPGKERELVASISRSGGSTYYADSVKGRFTISRDHAKNNVYLQMKSLKPEDTAVYYCADAQKVLFYGRWFDYWGQCTQVTVSS", "polyreactivity (PSR sort gate)": "low polyreactivity"}, {"sequence": "QVQLVESGGGLVQAGGSLRLSCAPSGLIFAHYDMGWYRHAPGKERELVAGITSGGSTNYADSVKGRFTISRDNAKITVYLQMNSQKPEYTAVYYCNADRAGFLGFYLYDYWGQGTQVTVSS", "polyreactivity (PSR sort gate)": "low polyreactivity"}, {"sequence": "QVQLVESGGGLVQAGGSLRLSCAPSGNIFETYAMGWYRPAPGKERELVAVITRGGSTYYADSVKGRFTISRDNAKNTVYLQMNSLKPEDTAVYYCARDAYDDWYGLTDDKSDYWGQGTQVTLSS", "polyreactivity (PSR sort gate)": "low polyreactivity"}, {"sequence": "QVQLVESGGGLVQAGGSLRLSCAPSGRIFNAYAMGWYRQAPGKERELVAAITVSGTRTYYADSVKGRFTISRDNAKNTVYLQMNSLKPEDSAVYYCNAGRGGVLDYGYWGQGTQVTVSS", "polyreactivity (PSR sort gate)": "high polyreactivity"}, {"sequence": "QVQLVESGGGLVQAGGSLRLSCAPSGRIFSINAMGWYRQAPGKERELVAAITSGGSTKYADSVKGRFTISRDNAKNTVYLQMNSLKPEDTAVYYCAAAPGYLYWKVDYNYWGQGTQVTVSS", "polyreactivity (PSR sort gate)": "high polyreactivity"}, {"sequence": "QVQLVESGGGLVQAGGSLRLSCAPSGRIFTHNVRGWYRQAPGKERELVAAISASGGSTYYADSVKGRFTISRDNAKNTVYLQMNSLKPEDTAVYYCNAEWAVRYPGYDYWGQGTQVTVSS", "polyreactivity (PSR sort gate)": "low polyreactivity"}, {"sequence": "QVQLVESGGGLVQAGGSLRLSCAPSGRIFVLYTMGWYRQAPGKERELVAAIRGGGSTNYADSVKGRFTISRDNAKNTVYLQMNSLKPEDTAVSYCAARYYREYDYWGQGTQVTVSS", "polyreactivity (PSR sort gate)": "high polyreactivity"}, {"sequence": "QVQLVESGGGLVQAGGSLRLSCAPSGRIFYSNDMGWYRQAPGKERELVAAIRDSAGSTRYADSVKGRFTISRVNAKNTVYLQMNSLKPEDTAVFYGHKDYVSIYFEYLDDYWGQGTQVTVSS", "polyreactivity (PSR sort gate)": "low polyreactivity"}, {"sequence": "QVQLVESGGGLVQAGGSLRLSCAPSGRIVGKYVMGWDRQAPRKERELVAGICWSAGSTYYADSVKGRFTISRDNAKNTVYLQMNSLKPEDTAVYYCAAGLEGGSDYWGQGTQVTVSS", "polyreactivity (PSR sort gate)": "low polyreactivity"}, {"sequence": "QVQLVESGGGLVQAGGSLRLSCAPSGRIYATYAMGWYRQAPGKDSELVAAISDSGGRTYYADSVKGRFTISRDNAKNTVYLQMKSLKPEVNAVYYCAAKNGDRYARGYWGQGTQVNVSS", "polyreactivity (PSR sort gate)": "high polyreactivity"}, {"sequence": "QVQLVESGGGLVQAGGSLRLSCAPSGRTFYINAMGWYRQAPGKEREFVAAITTSGGGTYYADSVKGRFTISRDNAKNTVYLQMNSLKPEDTAVYYCNTRSRRGKDGRYDYWGQGTQVTVSS", "polyreactivity (PSR sort gate)": "high polyreactivity"}, {"sequence": "QVQLVESGGGLVQAGGSLRLSCAPSGSIFDFNTMGWYRQAPGKERELVAAISQRTGRTYYADSVKGRFTISRDNAKNTVYLQMNSLKPEDTAVYYCARTDRRLGAHQGDYWGQGTQVTVSS", "polyreactivity (PSR sort gate)": "high polyreactivity"}, {"sequence": "QVQLVESGGGLVQAGGSLRLSCAPSGSIFGINARAWYRQAPGKERELVAAISSGGSTNNADSVKGRFTISRDNAKNTVYFQMNSLKPEDTAVYYCAARLYYVRYNYWGQGTQGTVSS", "polyreactivity (PSR sort gate)": "high polyreactivity"}, {"sequence": "QVQLVESGGGLVQAGGSLRLSCAPSGSIFQFYAMGWYRQAPGKESELVAGINTSGGSTYYADSVKGRFTISRDNAKNTVYLQMNSLKPEDTEVYYCMARSRYDTGRQRGYDYWGQGTQVTVSS", "polyreactivity (PSR sort gate)": "low polyreactivity"}, {"sequence": "QVQLVESGGGLVQAGGSLRLSCAPSGSIFRYYAMGWYRQAPGKERELVAAISWSGTSTYYADSVKGRFTISRDNAKNTVYLQMNSLKPEDTAVYYCNKVIPANIRRSYDYWGQGTQVTVSS", "polyreactivity (PSR sort gate)": "high polyreactivity"}, {"sequence": "QVQLVESGGGLVQAGGSLRLSCAPSGSIFSAYAMGWYRQAPGKERELVAAITRGTSTNYADSVKGRFTISRDNAKNTVYLQMNSLKPEDTAVYYCAAEYGWYYVNFYYWGQGTQVTVSS", "polyreactivity (PSR sort gate)": "low polyreactivity"}]}]}
